Columns and labels:
Assay in all cases: NanoBiT
Settings in all cases: six technical replicates in each of three independent biological replicates; parent: est. 1.0; read off a plot
SmBiT-SEC24A = SmBiT-SEC24A (UniProt O95486)
SmBiT-SEC24C = SmBiT-SEC24C (UniProt P53992)
LgBiT-SURF4 = LgBiT-SURF4 (UniProt O15260)

Sequence of LgBiT-SURF4 (O15260 whole entry, change not shown): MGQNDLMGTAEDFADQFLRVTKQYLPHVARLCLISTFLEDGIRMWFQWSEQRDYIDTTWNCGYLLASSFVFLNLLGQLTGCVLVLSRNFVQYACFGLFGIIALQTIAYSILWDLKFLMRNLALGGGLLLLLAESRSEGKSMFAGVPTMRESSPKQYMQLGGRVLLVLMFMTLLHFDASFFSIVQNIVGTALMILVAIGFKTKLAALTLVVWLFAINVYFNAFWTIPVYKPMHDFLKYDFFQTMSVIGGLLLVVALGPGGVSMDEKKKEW
Sequence of UniProt P53992 (P53992 whole entry): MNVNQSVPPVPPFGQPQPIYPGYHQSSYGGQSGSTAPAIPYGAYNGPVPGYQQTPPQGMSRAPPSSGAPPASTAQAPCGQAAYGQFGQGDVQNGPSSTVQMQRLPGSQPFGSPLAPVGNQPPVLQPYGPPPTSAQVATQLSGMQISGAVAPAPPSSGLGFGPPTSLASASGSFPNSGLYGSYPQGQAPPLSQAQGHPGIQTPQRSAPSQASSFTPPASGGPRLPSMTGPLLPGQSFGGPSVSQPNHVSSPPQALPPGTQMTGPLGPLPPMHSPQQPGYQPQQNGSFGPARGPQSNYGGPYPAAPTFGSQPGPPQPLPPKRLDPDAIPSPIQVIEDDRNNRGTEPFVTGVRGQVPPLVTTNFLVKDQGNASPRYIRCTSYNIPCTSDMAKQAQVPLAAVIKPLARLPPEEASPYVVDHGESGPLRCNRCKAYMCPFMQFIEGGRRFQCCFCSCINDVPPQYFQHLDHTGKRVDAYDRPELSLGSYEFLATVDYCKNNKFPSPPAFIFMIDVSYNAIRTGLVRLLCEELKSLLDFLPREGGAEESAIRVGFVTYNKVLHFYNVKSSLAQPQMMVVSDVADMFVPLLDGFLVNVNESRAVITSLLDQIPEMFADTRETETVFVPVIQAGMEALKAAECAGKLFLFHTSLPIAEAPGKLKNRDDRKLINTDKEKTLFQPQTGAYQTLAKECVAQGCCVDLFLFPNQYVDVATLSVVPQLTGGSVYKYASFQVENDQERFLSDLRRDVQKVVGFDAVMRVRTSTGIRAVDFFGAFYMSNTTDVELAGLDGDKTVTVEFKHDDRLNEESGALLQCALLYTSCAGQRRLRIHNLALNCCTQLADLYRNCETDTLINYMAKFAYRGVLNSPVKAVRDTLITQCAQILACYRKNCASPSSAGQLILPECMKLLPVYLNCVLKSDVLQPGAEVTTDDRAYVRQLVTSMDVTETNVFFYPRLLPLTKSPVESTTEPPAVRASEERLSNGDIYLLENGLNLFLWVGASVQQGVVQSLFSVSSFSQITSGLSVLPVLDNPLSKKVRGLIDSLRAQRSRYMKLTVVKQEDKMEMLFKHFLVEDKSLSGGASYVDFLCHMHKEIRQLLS
Sequence of SmBiT-SEC24A (O95486 whole entry, change not shown): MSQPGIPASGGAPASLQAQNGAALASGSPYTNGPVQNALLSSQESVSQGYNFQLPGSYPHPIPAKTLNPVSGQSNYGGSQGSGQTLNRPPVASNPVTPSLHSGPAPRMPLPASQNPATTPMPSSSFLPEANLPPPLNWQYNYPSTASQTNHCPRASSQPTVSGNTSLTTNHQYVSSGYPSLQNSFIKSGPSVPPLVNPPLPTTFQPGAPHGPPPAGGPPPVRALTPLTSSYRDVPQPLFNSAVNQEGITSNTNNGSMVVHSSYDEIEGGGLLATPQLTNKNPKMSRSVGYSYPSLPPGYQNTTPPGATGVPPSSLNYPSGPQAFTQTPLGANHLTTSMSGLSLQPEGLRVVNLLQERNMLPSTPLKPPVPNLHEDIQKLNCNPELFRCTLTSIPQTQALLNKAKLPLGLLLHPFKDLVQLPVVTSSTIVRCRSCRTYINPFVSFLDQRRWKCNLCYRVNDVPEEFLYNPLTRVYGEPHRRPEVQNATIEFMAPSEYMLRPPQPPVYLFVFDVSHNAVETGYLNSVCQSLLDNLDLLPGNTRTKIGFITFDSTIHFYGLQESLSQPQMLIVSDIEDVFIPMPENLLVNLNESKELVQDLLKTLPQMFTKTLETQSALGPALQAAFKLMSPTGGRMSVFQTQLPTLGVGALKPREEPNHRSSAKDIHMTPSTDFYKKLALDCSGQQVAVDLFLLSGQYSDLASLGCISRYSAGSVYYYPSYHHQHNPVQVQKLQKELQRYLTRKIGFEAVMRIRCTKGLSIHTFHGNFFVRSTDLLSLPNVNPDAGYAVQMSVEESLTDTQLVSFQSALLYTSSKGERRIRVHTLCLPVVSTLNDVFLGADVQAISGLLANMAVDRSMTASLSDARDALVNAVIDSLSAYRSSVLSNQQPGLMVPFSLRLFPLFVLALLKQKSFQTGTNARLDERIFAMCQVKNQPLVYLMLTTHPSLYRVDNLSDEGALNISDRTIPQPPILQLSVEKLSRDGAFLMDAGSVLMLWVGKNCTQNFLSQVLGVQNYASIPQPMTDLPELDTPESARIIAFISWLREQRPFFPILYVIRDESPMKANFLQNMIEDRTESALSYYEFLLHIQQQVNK

| Substance | ratio to parent (SmBiT-SEC24A) | ratio to parent (SmBiT-SEC24C) | ratio to parent (LgBiT-SURF4) |
| --- | --- | --- | --- |
| LgBiT-SURF4 (from UniProt O15260) DE | 0.9 | 0.69 | – |
| LgBiT-SURF4 (from UniProt O15260) EW | 0.85 | 0.78 | – |
| LgBiT-SURF4 (from UniProt O15260) Phe loop | 0.43 | 0.82 | – |
| SmBiT-SEC24A (from UniProt O95486) D-site | – | – | 0.79 |

Source: PMC11557686
